Data reported in patent US20260098102A1 (NATIONAL UNIVERSITY CORPORATION KOBE UNIVERSITY, published 2026).
One block for each binder: values may come before it.

Experiments:
human SIRPA_V2 protein [1] = target: T1, human SIRPA_V2 protein (human, UniProt P78324 31-504); experiment: cell-based ELISA on 293α cells expressing FLAG-tagged SIRPA_V2; Abs 490 normalized to FLAG tag
T1 construct: Expressed on 293α cells from pcDNA3.2 V5-DEST or pFLAG V5-DEST (FLAG-tagged) vectors; also called human SIRPA Variant 2; ECD variant (full-length, amino acids 1 to 504)
T1 sequence (P78324 other isoform, or with tags, fused parts or gaps limits assumed): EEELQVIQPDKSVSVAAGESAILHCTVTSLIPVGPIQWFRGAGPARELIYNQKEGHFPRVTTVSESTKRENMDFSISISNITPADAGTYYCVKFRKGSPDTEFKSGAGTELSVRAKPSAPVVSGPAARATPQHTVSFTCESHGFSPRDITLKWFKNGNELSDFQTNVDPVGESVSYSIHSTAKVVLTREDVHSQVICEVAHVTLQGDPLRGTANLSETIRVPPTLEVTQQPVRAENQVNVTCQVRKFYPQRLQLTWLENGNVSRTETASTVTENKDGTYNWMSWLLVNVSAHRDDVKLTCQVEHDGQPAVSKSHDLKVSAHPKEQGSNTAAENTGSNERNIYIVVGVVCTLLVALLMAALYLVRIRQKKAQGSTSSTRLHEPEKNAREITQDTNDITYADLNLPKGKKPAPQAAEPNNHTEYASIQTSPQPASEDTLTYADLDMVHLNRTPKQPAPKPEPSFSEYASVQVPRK
Protocol: (§1) The 293α cells [described in Example 1)-6] were prepared in a 10% FBS-containing DMEM medium to 5×10⁵ cells/mL. pFLAG V5-DEST-SIRPA_V1, pFLAG V5-DEST-SIRPA_V2, or pFLAG V5-DEST was introduced into the cells using Lipofectamine LTX (Invitrogen), followed by addition of 100 μL per well to a 96-well plate (Corning Incorporated), and cells were cultured overnight in the 10% FBS-containing DMEM medium at 37° C. under a 5% CO₂ condition. The obtained introduced cells were used for cell-based ELISA in a state that they adhered to each other. After the culture supernatant was removed, 50 μL per well of the cD13 (IgG2 and IgG4pf), cF44 (IgG1, IgG2, IgG4p, and IgG4pf), and cF63 (IgG2 and IgG4pf) antibodies prepared in Examples 3 and 4 were added to each of pFLAG V5-DEST-SIRPA_V1, pFLAG V5-DEST-SIRPA_V2, or pFLAG V5-DEST-introduced cells at final concentrations of 0 to 10,000 ng/mL, and the mixture was allowed to stand at 4° C. for one hour. Further, 50 μL per well of anti-FLAG M2 antibody (SIGMA) diluted with 5% FBS-containing PBS to a final concentration of 10,000 ng/mL was added to a well for detecting expression of each SIRPA construct, and the mixture was allowed to stand at 4° C. for one hour. The cells in the well were washed once with 5% FBS-containing PBS, followed by addition of Peroxidase AffiniPure F(ab′)₂ Fragment Goat Anti-Human IgG, Fcγ Fragment Specific (Jackson ImmunoResearch) diluted 1000-fold with 5% FBS-containing PBS, and the mixture was allowed to stand at 4° C. for one hour. The cells in the well were washed five times with 5% FBS-containing PBS, followed by addition of 100 μL per well of an OPD coloration solution [o-phenylenediamine dihydrochloride (Wako Pure Chemical Industries, Ltd.) and H₂O₂ were dissolved in an OPD solution (0.05 M trisodium citrate, 0.1 M disodium hydrogen phosphate dodecahydrate, pH 4.5) at 0.4 mg/mL and 0.6% (v/v), respectively]. A coloration reaction was performed with stirring occasionally, 100 μL per well of 1 M HCl was added to terminate the coloration reaction, and then absorbance at 490 nm was measured with a plate reader ARVO (PerkinElmer Inc.). Binding of the human chimeric anti-human SIRPA antibodies to each construct was standardized by expression of the FLAG tag.

human SIRPA_V1 protein [2] = target: T2, human SIRPA_V1 protein (human, UniProt P78324 31-504); experiment: blocking cell-based ELISA: peroxidase-labeled CD47-Fc (10,000 ng/mL) on 293α cells expressing SIRPA_V1; y axis = CD47-Fc signal in % of no antibody [i]
T2 construct: Expressed on 293α cells from pcDNA3.2 V5-DEST or pFLAG V5-DEST (FLAG-tagged) vectors; also called human SIRPA Variant 1; hSIRPA V1
T2 sequence (P78324 31-504 limits assumed): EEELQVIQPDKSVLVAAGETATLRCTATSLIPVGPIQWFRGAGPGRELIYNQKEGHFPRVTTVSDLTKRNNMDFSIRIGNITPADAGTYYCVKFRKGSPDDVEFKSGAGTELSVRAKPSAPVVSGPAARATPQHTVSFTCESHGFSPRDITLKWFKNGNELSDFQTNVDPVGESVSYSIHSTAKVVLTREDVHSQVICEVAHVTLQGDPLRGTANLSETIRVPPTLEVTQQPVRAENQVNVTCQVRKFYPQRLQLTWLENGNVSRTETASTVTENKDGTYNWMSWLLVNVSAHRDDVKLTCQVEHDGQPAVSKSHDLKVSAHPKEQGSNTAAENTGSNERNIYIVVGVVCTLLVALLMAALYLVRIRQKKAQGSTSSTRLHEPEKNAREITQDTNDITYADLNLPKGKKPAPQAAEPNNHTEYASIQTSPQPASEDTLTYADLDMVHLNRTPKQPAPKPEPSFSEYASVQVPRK
Protocol: After the culture supernatant of the human SIRPA and monkey SIRPA expression vector-introduced 293α cells prepared in Examples 5)-1 and 5)-2, respectively, was removed, 50 μL per well of cD13 (IgG2 and IgG4pf), cF44 (four different constant regions IgG1, IgG2, IgG4p, and IgG4pf), and cF63 (IgG2 and IgG4pf) diluted with 5% FBS-containing PBS to final concentrations of 0 to 10,000 ng/mL were added to each of pcDNA3.2 V5-DEST-SIRPA_V1, pcDNA3.2 V5-DEST-monkey SIRPA, and pcDNA3.2 V5-DEST-introduced 293α cells, immediately followed by addition of 50 μL per well of peroxidase-labeled CD47-Fc prepared in 5% FBS-containing PBS at a final concentration of 10,000 ng/ml, and the mixture was allowed to stand at 4° C. for one hour. Thereafter, the SIRPA-CD47 binding inhibitory activity was evaluated in the same manner as in 1)-6-3.

human SIRPA_V1 protein [3] = target: T2, human SIRPA_V1 protein; experiment: cell-based ELISA on 293α cells expressing FLAG-tagged SIRPA_V1; Abs 490 normalized to FLAG tag
Protocol: as §1

human SIRPA_V2 protein [4] = target: T1, human SIRPA_V2 protein; experiment: blocking cell-based ELISA: peroxidase-labeled CD47-Fc (10,000 ng/mL) on 293α cells expressing SIRPA_V2; y axis = CD47-Fc signal in % of no antibody [ii]
human SIRPB = target: T3, human SIRPB (human, UniProt O00241 30-398); experiment: flow cytometry on CHO-K1 cells expressing FLAG-tagged human SIRPB; PE anti-human IgG; MFI standardized to secondary antibody alone
T3 construct: whole, on cells; FLAG-tagged (pFLAG V5-DEST), on CHO-K1 cells; also called SIRPβ1; signal regulatory protein β1
T3 sequence (O00241 30-398): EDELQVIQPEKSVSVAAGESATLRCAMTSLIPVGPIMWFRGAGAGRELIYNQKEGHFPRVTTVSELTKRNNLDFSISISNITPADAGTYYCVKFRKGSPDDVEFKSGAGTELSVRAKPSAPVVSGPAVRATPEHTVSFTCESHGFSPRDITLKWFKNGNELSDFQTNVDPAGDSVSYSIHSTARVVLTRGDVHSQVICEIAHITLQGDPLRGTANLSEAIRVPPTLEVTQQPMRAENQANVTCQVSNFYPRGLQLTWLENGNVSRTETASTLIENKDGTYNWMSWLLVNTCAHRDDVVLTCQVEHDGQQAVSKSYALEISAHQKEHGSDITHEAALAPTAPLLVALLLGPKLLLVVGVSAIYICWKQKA
Protocol: SIRPβ1 (signal regulatory protein β1: the amino acid sequence thereof is published as RefSeq accession number NP_006056) and SIRPγ (signal regulatory protein γ: the amino acid sequence thereof is published as RefSeq accession number NP_061026) are molecules belonging to the SIRPA family. In the present invention, “SIRPα” may be referred to as “SIRPA,” “SIRPβ1” may be referred to as […] and “SIRPγ” may be referred to as “SIRPG.” CHO-K1 cells were prepared in a 10% FBS-containing Ham's F-12K medium at 3.3×10⁵ cells/mL and cultured overnight at 37° C. under a 5% CO₂ condition. pFLAG V5-DEST-human SIRPβ, pFLAG V5-DEST-human SIRPG, or pFLAG V5-DEST was introduced into the cells using Lipofectamine LTX (Invitrogen), and cells were cultured in a 10% FBS-containing Ham's F-12K medium at 37° C. under a 5% CO₂ condition for 24 hours. The obtained introduced cells were collected and seeded on a 96-well plate. After the culture supernatant was removed, 100 μL per well of various anti-human SIRPA antibodies or various control human IgG was added to each of various gene introduced cells at a final concentration of 0 to 10,000 ng/mL, and the mixture was allowed to stand at 4° C. for 25 minutes. After the mixture was centrifuged, the supernatant was removed, and cells were washed twice with 5% FBS-containing PBS. After the mixture was centrifuged, the supernatant was removed, 50 μL per well of a 1/400 diluted solution of PE Mouse anti-Human IgG antibody (BioLegend) was added, and the mixture was allowed to stand at 4° C. for 25 minutes. After the mixture was centrifuged, the supernatant was removed, and cells were washed twice with 5% FBS-containing PBS.
After the mixture was centrifuged, and the supernatant was removed, cells were suspended in 100 μL per well of 1× BD Stabilizing Fixative (Becton Dickinson), and the cell count was measured by flow cytometry (FACS Canto II: Becton Dickinson). For data analysis, FlowJo (TreeStar) was used. Cells were characterized by detecting forward scattered (FSC) light and side-scattered (SSC) light, and then the mean fluorescence intensity of PE was calculated. Binding of various antibodies to the family molecules was calculated by standardizing the fluorescence intensity using the mean fluorescence intensity of a sample in which the secondary antibody alone was allowed to react.

SIRPA_V1_IgV = target: T4, SIRPA_V1_IgV (human, UniProt P78324 31-149); experiment: SPR Biacore T200, antibody captured on anti-human IgG (Fc), SIRPA_V1_IgV as analyte (0.25 to 16 nM), 1:1 model
T4 construct: Secreted recombinant protein from FreeStyle 293F cells
T4 sequence (P78324 other isoform, or with tags, fused parts or gaps limits assumed): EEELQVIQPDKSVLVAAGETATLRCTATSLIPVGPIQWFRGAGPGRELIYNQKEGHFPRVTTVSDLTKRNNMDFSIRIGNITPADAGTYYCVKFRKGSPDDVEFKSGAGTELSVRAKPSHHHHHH
Protocol: The dissociation constants were measured by a capture method comprising capturing each antibody as a ligand to an Anti-Human IgG (Fc) antibody immobilized using Human Antibody Capture Kit (GE Healthcare Bioscience Corp.) and measuring an antigen as an analyte, using Biacore T200 (GE Healthcare Bioscience Corp.). HBS-EP+ (GE Healthcare Bioscience Corp.) was used as a running buffer, and CM5 (GE Healthcare Bioscience Corp.) was used as a sensor chip. Onto the chip, 2 μg/mL of various antibodies were added at 10 μL/min for 30 seconds, then a serially diluted solution (0.25 to 16 nM) of the human SIRPA protein as an antigen was added at a flow rate of 30 μL/min for 120 seconds, and subsequently the dissociation phase for 600 seconds was monitored. As a regenerant, 3 M magnesium chloride (GE Healthcare Bioscience Corp.) was added at a flow rate of 20 μL/min for 30 seconds. For data analysis, a binding rate constant (ka), a dissociation rate constant (kd), and a dissociation constant (KD; KD=kd/ka) were calculated using a 1:1 binding model.

human SIRPA_V1 protein [5] = target: T2, human SIRPA_V1 protein; experiment: blocking cell-based ELISA: peroxidase-labeled CD47-Fc (1 µg/mL) on 293α cells expressing SIRPA_V1
Protocol: After the culture supernatant of the human SIRPA_V1 or V2 expression vector-introduced 293 cells prepared in Example 9)-1 was removed, 50 μL per well of various anti-SIRPA antibodies or various control Human IgG diluted with 5% FBS-containing PBS to a final concentration of 0 to 10,000 ng/ml was added to each of pcDNA3.2 V5-DEST-SIRPA_V1 or V2-introduced 293α cells, immediately followed by addition of 50 µL per well of peroxidase-labeled CD47-Fc prepared with 5% FBS-containing PBS at 1 μg/mL, and the mixture was allowed to stand at 4° C. for one hour. Thereafter, the SIRPA-CD47 binding inhibitory activity was evaluated in the same manner as in 1)-6-3.

- EC50 (read off the curve) (human SIRPA_V2 protein [1]): ~0.04 µg/mL
- IC50 (read off the curve) (human SIRPA_V1 protein [2]): ~0.4 µg/mL
- EC50 (read off the curve) (human SIRPA_V1 protein [3]): ~0.04 µg/mL
- IC50 (read off the curve) (human SIRPA_V2 protein [4]): ~0.4 µg/mL
B1: cF44 (IgG1) (antibody, V domains shown)
VH: EVQLVESGGGLVQPGRSLKLSCAASGFTFSNYYMAWVRQAPTKGLEWVTYITTGGGSTYFRDSVKGRFTISRDNAESTLYLQMDSLRSEDTATYYCTAANYGGSYFDYWGQGVMVTVSS
VL: DVQMTQSPSNLAASPGESVSINCKASKSISKYLAWYQQKPGKANKLLIYSGSTLQSGTPSRFSGSGSGTDFTLTIRNLEPEDFGLYYCQQHNEYPPTFGAGTKLELK
notes: Human IgG1 constant region; also called cF44 IgG1 type

- EC50 (read off the curve) (human SIRPA_V2 protein [1]): ~0.04 µg/mL
- IC50 (read off the curve) (human SIRPA_V1 protein [2]): ~0.4 µg/mL
- EC50 (read off the curve) (human SIRPA_V1 protein [3]): ~0.04 µg/mL
- IC50 (read off the curve) (human SIRPA_V2 protein [4]): ~0.3 µg/mL
B2: cF44 (IgG2) (antibody, V domains shown)
VH: B1 VH
VL: B1 VL
notes: Human IgG2 constant region; also called cF44 IgG2 type

- EC50 (read off the curve) (human SIRPA_V2 protein [1]): ~0.05 µg/mL
- IC50 (read off the curve) (human SIRPA_V1 protein [2]): ~0.5 µg/mL
- EC50 (read off the curve) (human SIRPA_V1 protein [3]): ~0.05 µg/mL
- IC50 (read off the curve) (human SIRPA_V2 protein [4]): ~0.4 µg/mL
B3: cF44 (IgG4p) (antibody, V domains shown)
VH: B1 VH
VL: B1 VL
notes: Human IgG4p (PRO mutation) constant region; also called cF44 IgG4p type

- EC50 (read off the curve) (human SIRPB): ~0.04 µg/mL
- Kd (SIRPA_V1_IgV): 11.7 nM
- IC50 (human SIRPA_V1 protein [5]): 2.32 µg/mL
B4: OSE-172 (antibody, human IgG4 S228P, kappa, V domains shown)
VH: EVQLVQSGAEVKKPGESLRISCKASGYSFTSYWVHWVRQMPGKGLEWMGNIDPSDSDTHYSPSFQGHVTLSVDKSISTAYLQLSSLKASDTAMYYCVRGGTGTLAYFAYWGQGTLVTVSS
VL: DVVMTQSPLSLPVTLGQPASISCRSSQSLVHSYGNTYLYWFQQRPGQSPRLLIYRVSNRFSGVPDRFSGSGSGTDFTLKISRVEAEDVGVYYCFQGTHVPYTFGGGTKVEIKR
notes: IgG4Pro heavy chain
